Measured values published in PMC8172861, “Structural and phylogenetic analyses of resistance to next-generation aminoglycosides conferred by AAC(2′) enzymes” (Scientific Reports, 2021).

Target: the molecule itself
Test: crystal structure; crystals grown at 4 °C by sitting-drop vapour diffusion, 10 mg/mL AAC(2′)-Ia with 10 mM acetyl-CoA and 10 mM antibiotic (tobramycin, netilmicin or amikacin); two chains (A and B) in the models

B1: AAC(2′)-Ia from Providencia stuartii (enzyme)
chain: MGIEYRSLHTSQLTLSEKEALYDLLIEGFEGDFSHDDFAHTLGGMHVMAFDQQKLVGHVAIIQRHMALDNTPISVGYVEAMVVEQSYRRQGIGRQLMLQTNKIIASCYQLGLLSASDDGQKLYHSVGWQIWKGKLFELKQGSYIRSIEEEGGVMGWKADGEVDFTASLYCDFRGGDQW
notes: AAC(2′)-Ia, aminoglycoside 2′-N-acetyltransferase from Providencia stuartii; synthesized gene in pET-15b (NdeI/BamHI); Crystallised with acetyl-CoA or CoA and an aminoglycoside; also called aminoglycoside (2′)-N-acetyltransferase; source: E. coli BL21(DE3), purified (Ni-IDA-Sepharose, thrombin cleavage, benzamidine column, DEAE Sepharose); not shown: HIS-tag, N-terminal, cleaved
binding result: binds
